The target of assay [1] is T1, recombinant human IL-17A (purchased from R&D Systems) (human, UniProt Q16552 24-155). Nature of the assay: cell-based or functional assay.
The target in assay [2] is T2, hIL-17A (analyte of the Biacore assay) (human, UniProt Q16552 24-155).
T2 construct: The Biacore method says only 'hIL-17A'; also called human IL-17A
Kind of assay: SPR, Biacore T200: antibody captured on Protein A/G, hIL-17A as analyte. On the procedure:
(§1) The specific experimental method was as follows: Amine Coupling Kit (GE healthcare) was used to activate CM5 sensor chips (GE healthcare) and recombinant Protein A/G (Thermo Pierce) was immobilized on the chip with an amount of 2000 RU. FC3 (Flow cell 3) was a reference channel, and FC4 (Flow cell 4) was a sample channel. […] The cycling conditions were as follows: the analyte was injected at 50 μl/min for 4 min in all channels of the FCs, the dissociation time was 20 min, and 6M guanidine hydrochloride (National Pharmaceutical Group Chemical Reagent Co., Ltd.) was injected at a rate of 10 μl/min for 30 s to surface regeneration. Then, difference between the signals of the captured antibodies and antibody-free controls were adopted to calculate binding kinetics and affinities using Biacore T200 Evaluation Software Ver 1.0.

In assay [3] the target is T1, recombinant human IL-17A (purchased …). Kind of assay: cell-based or functional assay. This is another data set of the same source.
Assay [4] deals with T2, hIL-17A (analyte of the Biacore assay). Kind of assay: SPR, Biacore (as in Example 6): antibody captured, hIL-17A as analyte. The procedure: as §1

T1 sequence (Q16552 24-155 limits assumed): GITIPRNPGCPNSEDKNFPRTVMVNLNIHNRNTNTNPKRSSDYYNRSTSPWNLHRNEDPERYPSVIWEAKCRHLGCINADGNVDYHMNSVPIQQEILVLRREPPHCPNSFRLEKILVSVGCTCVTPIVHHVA
T2 sequence (Q16552 24-155 limits assumed): as above

B1: murine anti-human IL-17A monoclonal antibody No.120 (antibody, V domains shown)
VH: EVKLVESGGGLVRPGGTLKLSCAASGFTFSSFDMSWGRQTPEKRLEWVAFMSSGGSTYYPDSVKGRFTISRDNVRNILYLQMISLRSEDTAMYYCARGERYGSYWGQGTLVTVSA
VL: DIQMTQSSSYLSVSLGGRVTITCKASDHINNWLAWYQQKPGNAPRLLISGATSLETGVPSRFSGSGSGKDYTLSITSLQTEDVATYYCQQYWSTPFTFGSGTKLEIK
notes: also called No.120 antibody; murine 120 antibody
In the case of B1, the “IC50, inhibition of IL-17A-induced IL-6 secretion from Hela cells” value in assay [1] came to 30.5 pM. In assay [2], this molecule displayed a Kd of 0.000299 nM, a koff of 6.08e-08 s⁻¹ and a kon of 204000 M⁻¹ s⁻¹.

B2: Ixekizumab (antibody, V domains shown)
VH: QVQLVQSGAEVKKPGSSVKVSCKASGYSFTDYHIHWVRQAPGQGLEWMGVINPMYGTTDYNQRFKGRVTITADESTSTAYMELSSLRSEDTAVYYCARYDYFTGTGVYWGQGTLVTVSS
VL: DIVMTQTPLSLSVTPGQPASISCRSSRSLVHSRGNTYLHWYLQKPGQSPQLLIYKVSNRFIGVPDRFSGSGSGTDFTLKISRVEAEDVGVYYCSQSTHLPFTFGQGTKLEIKR
With B2, the “IC50, inhibition of IL-17A-induced IL-6 secretion from Hela cells” value in assay [1] turned out to be 60.6 pM. Also, in assay [3], the “IC50(pM), inhibition of IL-17A-induced IL-6 secretion from Hela cells, Experiment 1” value was 21.9 pM; the “IC50(pM), inhibition of IL-17A-induced IL-6 secretion from Hela cells, Experiment 2” value stood at 27.4 pM; the “IC50(pM), inhibition of IL-17A-induced IL-6 secretion from Hela cells, Experiment 3” value is 50.7 pM. Also, in assay [4], the Kd was determined as 0.0411 nM, the koff was found to be 9.45e-05 s⁻¹ and the kon is 2.3e+06 M⁻¹ s⁻¹. Besides, in assay [2], binding was characterised by a dissociation constant (Kd) of 0.0637 nM, the koff is 3.28e-05 s⁻¹ and the kon turned out to be 515000 M⁻¹ s⁻¹.

B3: humanized anti-human IL-17A monoclonal antibody 120-Hu (antibody, human IgG1, kappa, V domains shown)
VH: EVQLVESGGGLVQPGGSLRLSCAASGFTFSSFDMSWGRQAPGKRLEWVAFMSSGGSTYYPDSVKGRFTISRDNSKNTLYLQMNSLRAEDTAVYYCARGERYGSYWGQGTLVTVSS
VL: DIQMTQSPSSLSASVGDRVTITCKASDHINNWLAWYQQKPGKAPKLLISGATSLETGVPSRFSGSGSGTDYTLTISSLQPEDFATYYCQQYWSTPFTFGSGTKLEIKR
notes: Human IgG1; also called 120-Humanization; humanized 120 antibody
B3: in assay [3], the “IC50(pM), inhibition of IL-17A-induced IL-6 secretion from Hela cells, Experiment 1” value turned out to be 14.7 pM; the “IC50(pM), inhibition of IL-17A-induced IL-6 secretion from Hela cells, Experiment 2” value amounted to 22 pM; the “IC50(pM), inhibition of IL-17A-induced IL-6 secretion from Hela cells, Experiment 3” value came out at 44.6 pM. Also, in assay [4], the Kd is < 0.001 nM, the koff is < 1e-05 s⁻¹ and the kon turned out to be 445000 M⁻¹ s⁻¹.

Values taken from US20190161544A1 (SUNSHINE GUOJIAN PHARMACEUTICAL SHANGHAI, published 2019).
